Data on 1 molecule can be found in paper PMC4717663 (2014).

This assay has as its target pro-TGF-β1 (Homo sapiens, UniProt P01137).

Chain of pro-TGF-β1 (P01137 30-278, chain 1 of 2): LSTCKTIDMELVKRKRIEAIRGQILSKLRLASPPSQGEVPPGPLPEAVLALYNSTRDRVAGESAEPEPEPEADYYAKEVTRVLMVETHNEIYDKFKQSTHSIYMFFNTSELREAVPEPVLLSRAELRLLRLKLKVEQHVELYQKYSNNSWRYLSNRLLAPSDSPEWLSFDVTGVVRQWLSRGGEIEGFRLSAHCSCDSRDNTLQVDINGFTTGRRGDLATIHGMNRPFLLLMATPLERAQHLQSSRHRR
Chain of pro-TGF-β1 (P01137 279-390, chain 2 of 2): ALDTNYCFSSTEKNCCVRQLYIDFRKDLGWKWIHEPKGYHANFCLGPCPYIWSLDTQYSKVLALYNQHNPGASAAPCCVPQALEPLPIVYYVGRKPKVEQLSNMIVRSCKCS

B1: integrin αVβ6 (protein)
chain 1: FNLDVDSPAEYSGPEGSYFGFAVDFFVPSASSRMFLLVGAPKANTTQPGIVEGGQVLKCDWSSTRRCQPIEFDATGNRDYAKDDPLEFKSHQWFGASVRSKQDKILACAPLYHWRTEMKQEREPVGTCFLQDGTKTVEYAPCRSQDIDADGQGFCQGGFSIDFTKADRVLLGGPGSFYWQGQLISDQVAEIVSKYDPNVYSIKYNNQLATRTAQAIFDDSYLGYSVAVGDFNGDGIDDFVSGVPRAARTLGMVYIYDGKNMSSLYNFTGEQMAAYFGFSVAATDINGDDYADVFIGAPLFMDRGSDGKLQEVGQVSVSLQRASGDFQTTKLNGFEVFARFGSAIAPLGDLDQDGFNDIAIAAPYGGEDKKGIVYIFNGRSTGLNAVPSQILEGQWAARSMPPSFGYSMKGATDIDKNGYPDLIVGAFGVDRAILYRARPVITVNAGLEVYPSILNQDNKTCSLPGTALKVSCFNVRFCLKADGKGVLPRKLNFQVELLLDKLKQKGAIRRALFLYSRSPSHSKNMTISRGGLMQCEELIAYLRDESEFRDKLTPITIFMEYRLDYRTAADTTGLQPILNQFTPANISRQAHILLDCGEDNVCKPKLEVSVDSDQKKIYIGDDNPLTLIVKAQNQGEGAYEAELIVSIPLQADFIGVVRNNEALARLSCAFKTENQTRQVVCDLGNPMKAGTQLLAGLRFSVHQQSEMDTSVKFDLQIQSSNLFDKVSPVVSHKVDLAVLAAVEIRGVSSPDHVFLPIPNWEHKENPETEEDVGPVVQHIYELRNNGPSSFSKAMLHLQWPYKYNNNTLLYILHYDIDGPMNCTSDMEINPLRIKISSLQTTEKNDTVAGQGERDHLITKRDLALSEGDIHTLGCGVAQCLKIVCQVGRLDRGKSAILYVKSLLWTETFMNKENQNHSYSLKSSASFNVIEFPYKNLPIEDITNSTLVTTNVTWGIQPAPMPV
chain 2: GCALGGAETCEDCLLIGPQCAWCAQENFTHPSGVGERCDTPANLLAKGCQLNFIENPVSQVEILKNKPLSVGRQKNSSDIVQIAPQSLILKLRPGGAQTLQVHVRQTEDYPVDLYYLMDLSASMDDDLNTIKELGSRLSKEMSKLTSNFRLGFGSFVEKPVSPFVKTTPEEIANPCSSIPYFCLPTFGFKHILPLTNDAERFNEIVKNQKISANIDTPEGGFDAIMQAAVCKEKIGWRNDSLHLLVFVSDADSHFGMDSKLAGIVIPNDGLCHLDSKNEYSMSTVLEYPTIGQLIDKLVQNNVLLIFAVTQEQVHLYENYAKLIPGATVGLLQKDSGNILQLIISAYEELRSEVELEVLGDTEGLNLSFTAICNNGTLFQHQKKCSHMKVGDTASFSVTVNIPHCERRSRHIIIKPVGLGDALELLVSPECNCDCQKEVEVNSSKCHHGNGSFQCGVCACHPGHMGPRCECGEDMLSTDSCKEAPDHPSCSGRGDCYCGQCICHLSPYGNIYGPYCQCDNFSCVRHKGLLCGGNGDCDCGECVCRSGWTGEYCNCTTSTDSCVSEDGVLCSGRGDCVCGKCVCTNPGASGPTCERCPTCGDPCNSKRSCIECHLSAAGQAREECVDKCKLAGATISEEEDFSKDGSVSCSLQGENECLITFLITTDNEGKTIIHSINEKDCPKPPNIP
Broadly, the Kd is the free concentration of one partner at which half of the binding sites on the other are occupied at equilibrium, for simple one-to-one binding. The molecule B1 came in with a Kd of approximately 10 nM.
